Test results from PMC5150636, “Isolated pores dissected from human two-pore channel 2 are functional” (Scientific Reports, 2016).

Target: the molecule itself
Experiment: SEC; Superdex 200 10/300 GL, buffer A (25 mM Tris, 500 mM NaCl, 0.174% (w/v) DM, pH 7.4), 0.5 ml/min, column calibrated with protein standards; fractions read by SDS PAGE; oligomer size from the elution volume

B1: human TPC2 DI pore (S212-A337), hexa-histidine-tagged (domain or fragment, UniProt Q8NHX9 212-337, looked up)
chain: SLPEMASVGLLLAIHLCLFTMFGMLLFAGGKQDDGQDRERLTYFQNLPESLTSLLVLLTTANNPDVMIPAYSKNRAYAIFFIVFTVIGSLFLMNLLTAIIYSQFRGYLMKSLQTSLFRRRLGTRAA
notes: two-pore channel 2 (TPC2), human, domain I pore region (S5-S6), residues S212-A337, codon-optimised synthetic gene in pET15b; numbers count on the full length channel; No removal of the His tag is described; also called hexaHis-DI pore; DI pore-only protein
  stoichiometry N: 4
